In patent US7429564B2, “Oral insulin therapy” (Emisphere Technologies, Inc., priority 2002, dated 2008):

Columns and labels:
[1] = monkey, in vivo
[2] = in vivo, sc
Excerpt: Safety assessments included physical examinations, medical history, vital signs, 12-lead electrocardiogram (ECG) monitoring, laboratory evaluations and checking for adverse events. Activity parameters included blood glucose, insulin, C-peptide, and 4-CNAB plasma concentration measurements.

Substance	Absolute bioavailability of insulin [1] [%]	Hypoglycemia occasions requiring rescue treatment [2]	Treatment-related adverse events [2]
oral insulin alone: recombinant human zinc insulin given orally without delivery agent	≤ 1		
SC insulin: human regular insulin injected subcutaneously (Humulin R or equivalent; Calbiochem insulin in the rat studies)		twelve	sixteen events
